Assay results from patent US20140030245.

Target: T1, Myc-tagged Chk1 C-terminal fragment C5, O14757
T1 chain: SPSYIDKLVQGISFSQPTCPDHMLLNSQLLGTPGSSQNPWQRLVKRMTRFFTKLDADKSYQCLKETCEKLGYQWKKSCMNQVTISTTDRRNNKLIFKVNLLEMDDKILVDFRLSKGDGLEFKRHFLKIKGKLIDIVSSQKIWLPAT

B1: endogenous Chk1 (protein)
chain: MAVPFVEDWDLVQTLGEGAYGEVQLAVNRVTEEAVAVKIVDMKRAVDCPENIKKEICINKMLNHENVVKFYGHRREGNIQYLFLEYCSGGELFDRIEPDIGMPEPDAQRFFHQLMAGVVYLHGIGITHRDIKPENLLLDERDNLKISDFGLATVFRYNNRERLLNKMCGTLPYVAPELLKRREFHAEPVDVWSCGIVLTAMLAGELPWDQPSDSCQEYSDWKEKKTYLNPWKKIDSAPLALLHKILVENPSARITIPDIKKDRWYNKPLKKGAKRPRVTSGGVSESPSGFSKHIQSNLDFSPVNSASSEENVKYSSSQPEPRTGLSLWDTSPSYIDKLVQGISFSQPTCPDHMLLNSQLLGTPGSSQNPWQRLVKRMTRFFTKLDADKSYQCLKETCEKLGYQWKKSCMNQVTISTTDRRNNKLIFKVNLLEMDDKILVDFRLSKGDGLEFKRHFLKIKGKLIDIVSSQKVWLPAT
In the case of B1, the “phosphorylation of endogenous Chk1 proteins (immunoblot, HeLa)” value is reported as “overexpression of the C5 fragment and to a lesser extent, the entire C-terminus, induced strong phosphorylation of endogenous Chk1 proteins” and the “phosphorylation of endogenous Chk1 under normal growth conditions (immunoblot, HEK293T)” value is reported as “expression of the C5 fragment, and to a lesser extent, the C6 fragment, but not other small fragments, induced phosphorylation of endogenous Chk1 under normal growth conditions”.
